Source: patent publication US20150104459A1

What was measured:
[1] = biological target: M2 protein of influenza A/Japan/305/57 (H2N2), on inactivated whole virions (influenza A virus A/Japan/305/57 (H2N2)); experiment: ELISA, positive control antibody on inactivated whole virions
[2] = biological target: recombinant soluble homotrimeric HA of A/common magpie/Hong Kong/5052/07 (H5N1) (Influenza A virus A/common magpie/Hong Kong/5052/2007 (H5N1)); experiment: HA microarray, control mAb

TCN-032 (8I10) (antibody), sequence (VH): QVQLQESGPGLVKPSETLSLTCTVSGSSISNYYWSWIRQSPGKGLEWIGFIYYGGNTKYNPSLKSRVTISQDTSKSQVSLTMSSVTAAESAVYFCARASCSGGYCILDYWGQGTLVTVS
TCN-032 (8I10) (antibody), sequence (VL): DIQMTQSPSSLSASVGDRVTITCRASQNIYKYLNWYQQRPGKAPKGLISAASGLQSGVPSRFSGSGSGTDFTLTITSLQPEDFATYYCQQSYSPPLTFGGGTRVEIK

Substance	ELISA virus binding (OD450) [1] [OD450]	Trimeric HA Binding RLU [2] [RLU]
TCN-032 (8I10) (antibody)	3.61	
TCN-202 (2N9) (antibody)		162
